# Read-outs that look alike come from different tables or passages of the source.
# B1: pp296: modified PlySs2 lysin, SEQ ID NO: 6: L92W, V104S, V128T, Y137S, Y164K, N184D, S198Q (protein)
# chain: MTTVNEALNNVRAQVGSGVSVGNGECYALASWYERMISPDATVGLGAGVGWVSGAIGDTISAKNIGSSYNWQANGWTVSTSGPFKAGQIVTWGATPGNPYGHVSIVEAVDGDRLTILEQNYGGKRYPTRNYYSAASSRQQVVHYITPPGTVAQSAPNLAGSRSKRETGTMTVTVDALNVRRAPDTSGEIVAVYKRGEQFDYDTAIIDVNGYAWVSYIGGSGKRNYVATGATKDGKRFGNAWGTFK
# What was measured:
# S. aureus = experiment: pp296 dose fractionation study, neutropenic murine thigh infection model; assay type: in vivo
# Description: Each of the pp296 TDDs was fractionated into three regimens, i.e., one-third of the entire dose was administered via IV three times (q8h); one-half of the entire does was administered via IV two times (q12h), or the entire dose was administered via IV once daily over a 24-hour period, for a total of three groups per each TDD.
# Untreated control mice (n=3/group) were sacrificed just prior to antibiotic administration, as well as 24 hours later. Animals sacrificed prior to antibiotic administration served as 0-hour control animals, representing initial bacterial burden. The 24-hour control animals received sterile normal saline in the same volume and schedule as the most frequent active drug regimen. […] After the 24-hour treatment period, all animals were euthanized and thighs were cultured quantitatively as described above. The change in bacterial density was calculated for each of the dosing regimen. Comparisons were made between the different regimens of the same total daily dose on bacterial burdens at 24 hours using one-way Analysis of Variance (ANOVA) test followed by Tukey's test where the P value was 0.05.
# MSSA strains = experiment: Checkerboard assay: pp296 or CF-301 with oxacillin; assay type: cell-based, Staphylococcus aureus; conditions: for FIC: pp296 + oxacillin; for ΣFICmin: with oxacillin
# Source text: In some embodiments, the present modified lysin polypeptides reduce the minimum inhibitory concentration (MIC) of an antibiotic. Any known method to assess MIC may be used. In some embodiments, a checkerboard assay is used to determine the effect of a lysin on antibiotic concentration. The checkerboard assay is based on a modification of the CLSI method for MIC determination by broth microdilution (See Clinical and Laboratory Standards Institute (CLSI), CLSI. 2015. Methods for Dilution Antimicrobial Susceptibility Tests for Bacteria That Grow Aerobically; Approved Standard-10th Edition. Clinical and Laboratory Standards Institute, Wayne, Pa., which is herein incorporated by reference in its entirety and Ceri et al. 1999. J. Clin. Microbiol. 37: 1771-1776, which is also herein incorporated by reference in its entirety).
# Checkerboards are constructed by first preparing columns of e.g., a 96-well polypropylene microtiter plate, wherein each well has the same amount of antibiotic diluted 2-fold along the horizontal axis. […] The lysin and antibiotic dilutions are then combined, so that each column has a constant amount of antibiotic and doubling dilutions of lysin, while each row has a constant amount of lysin and doubling dilutions of antibiotic. Each well thus has a unique combination of lysin and antibiotic. Bacteria are added to the drug combinations at a given concentration. […] Summation fractional inhibitory concentrations (ΣFICs) are calculated for each drug and the minimum ΣFIC value (ΣFICmin) is used to determine the effect of the lysin/antibiotic combination.
# The ability of CF-301 or a modified lysin polypeptide pp296 to synergize with oxacillin was assessed using a checkerboard analysis. For the checkerboard assay, a total of 50 μl of Mueller-Hinton broth is distributed into each well of microdilution plates. Then, a first antibiotic of a combination is serially diluted along the ordinate, while a second drug is diluted along the abscissa. An inoculum equal to a 0.5 McFarland turbidity standard is prepared from each bacterial isolate in Mueller-Hinton broth. Each microtiter well is then inoculated with 100 μl of a bacterial inoculum of 5×10^5 CFU/ml, and the plates are incubated at 37° C. for 18 h under aerobic conditions. The resulting checkerboard contains each combination of two antibiotics, with wells that contain the highest concentration of each antibiotic at opposite corners. […] To quantify the interactions between the antibiotics being tested, the FIC index (the combination of antibiotics that produced the greatest change from the individual antibiotic's MIC) value is calculated for each strain and antibiotic combination as follows:
# (A/MICA)+(B/MICB)=FICA+FICB=FIC index,
# where A and B are the MIC of each agent in combination in a single well, and MICA and MICB are the MIC of each drug when used individually. The combination is considered strongly synergistic when the FIC index is ≤0.5 and synergistic when the FIC index is >0.5-<1.
# [1] = tested on: 5 MSSA and 5 MRSA isolates; conditions: cited from earlier work
molecule,measurement,setting,value
B1,efficacy of dose-fractionation (q12h v. q8h) compared with q24h,S. aureus; pp296 5 or 50 mg/kg/day IV with vancomycin or daptomycin,does not appear to provide enhanced efficacy
same,driver of efficacy (PK/PD index),S. aureus; pp296 with vancomycin or daptomycin,AUC related
same,Single agent MICs,MSSA strains; MSSA ATCC 29213,1 µg/mL
same,Single agent MICs,MSSA strains; MSSA JMI-6625,1 µg/mL
same,Single agent MICs,MSSA strains; MSSA JMI-6885,1 µg/mL
same,Single agent MICs,MSSA strains; MSSA JMI-6886,1 µg/mL
same,Single agent MICs,MSSA strains; MSSA JMI-7054,1 µg/mL
same,Single agent MICs,MSSA strains; MSSA JMI-7160,1 µg/mL
same,Single agent MICs,MSSA strains; MSSA JMI-38739,1 µg/mL
same,Single agent MICs,MSSA strains; MSSA JMI-38986,1 µg/mL
same,Single agent MICs,MSSA strains; MSSA JMI-40671,1 µg/mL
same,Single agent MICs,MSSA strains; MSSA JMI-46142,1 µg/mL
same,FIC,MSSA strains; MSSA ATCC 29213,0.25
same,FIC,MSSA strains; MSSA JMI-6625,0.0625
same,FIC,MSSA strains; MSSA JMI-6885,0.25
same,FIC,MSSA strains; MSSA JMI-6886,0.25
same,FIC,MSSA strains; MSSA JMI-7054,0.25
same,FIC,MSSA strains; MSSA JMI-7160,0.25
same,FIC,MSSA strains; MSSA JMI-38739,0.25
same,FIC,MSSA strains; MSSA JMI-38986,0.125
same,FIC,MSSA strains; MSSA JMI-40671,0.25
same,FIC,MSSA strains; MSSA JMI-46142,0.25
same,ΣFICmin,MSSA strains; MSSA ATCC 29213,0.5
same,ΣFICmin,MSSA strains; MSSA JMI-6625,0.3125
same,ΣFICmin,MSSA strains; MSSA JMI-6885,0.375
same,ΣFICmin,MSSA strains; MSSA JMI-6886,0.5
same,ΣFICmin,MSSA strains; MSSA JMI-7054,0.5
same,ΣFICmin,MSSA strains; MSSA JMI-7160,0.5
same,ΣFICmin,MSSA strains; MSSA JMI-38739,0.5
same,ΣFICmin,MSSA strains; MSSA JMI-38986,0.375
same,ΣFICmin,MSSA strains; MSSA JMI-40671,0.375
same,ΣFICmin,MSSA strains; MSSA JMI-46142,0.5
same,FIC index,[1]; with daptomycin,~0.5
same,FIC index,[1]; with vancomycin,~0.5

# — patent publication US20230277632A1, “MODIFIED PlySs2 LYSINS AND ANTIBIOTIC COMBINATIONS FOR USE AGAINST GRAM-POSITIVE BACTERIA” (ContraFect Corporation, priority 2020, published 2023)
